The target of one data set is T1, XiaF (Streptomyces sp. HKI0576, UniProt I7IIA9).
T1 construct: full-length (Met1-Leu397), N-terminal His-tag (pET-28b, thrombin-cleavable; pET-26b with MHHHHHH for crystals); from E. coli; homotetramer
In words: HPLC-HRMS biotransformation assay. Conditions: 100 uM substrate, 500 uM NADH, 50 uM FAD, flavin reductase XiaP, pH 8.0, 28 °C. It is filed as biochemical.

Data set [1] addresses His-tagged XiaF (44.5 kDa, from pXU520) (Streptomyces sp. HKI0576). In words: SEC; HiLoad 16/600 Superdex 200 prep grade; 20 mM Tris-HCl pH 8.0, 100 mM NaCl; calibrated with Gel Filtration Calibration Kits.
Data set [2] addresses XiaF (recombinant, N-terminal histidine-tag, construct pET26b(+)-xiaF used for crystallization) (Streptomyces sp. HKI0576). In words: crystal structure; hanging drop vapour diffusion at 20 °C; XiaF apo (5LVU), with FADH2 (5LVW), with FADH2 and glycerol (5MR6); molecular replacement.
Data set [3] concerns the target untagged XiaF (42.4 kDa, tag cleaved with thrombin) (Streptomyces sp. HKI0576). The data set can be described thus: SEC; HiLoad 16/600 Superdex 200 prep grade; 20 mM Tris-HCl pH 8.0, 100 mM NaCl; calibrated with Gel Filtration Calibration Kits.
Data set [4] deals with the molecule itself. In words: SEC; HiLoad 16/600 Superdex 200 prep grade; 100 mM NaH2PO4, 100 mM Na2HPO4, 2% glycerol, pH 7.0. In general terms: Size exclusion chromatography separates by hydrodynamic size, large species first.

T1 sequence (I7IIA9 entry or part of it): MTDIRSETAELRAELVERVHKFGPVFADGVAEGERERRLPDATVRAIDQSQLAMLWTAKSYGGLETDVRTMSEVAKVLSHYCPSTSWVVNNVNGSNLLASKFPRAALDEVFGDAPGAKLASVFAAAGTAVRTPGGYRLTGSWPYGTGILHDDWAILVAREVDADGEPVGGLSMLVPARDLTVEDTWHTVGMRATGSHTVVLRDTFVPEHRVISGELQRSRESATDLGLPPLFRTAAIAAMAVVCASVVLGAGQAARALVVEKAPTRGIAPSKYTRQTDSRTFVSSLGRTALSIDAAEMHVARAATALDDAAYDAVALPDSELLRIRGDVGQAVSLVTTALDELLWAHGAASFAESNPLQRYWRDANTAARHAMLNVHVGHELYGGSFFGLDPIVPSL

For the molecule `C=C1CC[C@@H]2[C@](C)(CC[C@H](O)[C@@]2(C)C(=O)O)[C@H]1Cc1c[nH]c2ccccc12` [compound 2, indosespene], the HPLC-HRMS biotransformation assay entry at XiaF is given as “we found that XiaP substantially increases the performance of XiaF”.

For orientation: stoichiometry N means the number of molecules, sites or subunits per partner or assembly. As for “His-tagged XiaF (44.5 kDa, from pXU520) (enzyme)”, the stoichiometry N in data set [1] came out at 4. As for “XiaF (recombinant, N-terminal histidine-tag, construct pET26b(+)-xiaF used for crystallization) (enzyme)”, in data set [2], the stoichiometry N was determined as 4. As for “untagged XiaF (42.4 kDa, tag cleaved with thrombin) (enzyme)”, in data set [3], the stoichiometry N is 4.

B1: His-tagged XiaP (enzyme, Streptomyces sp. HKI0576)
chain: MIDRETFVELMSGVCAPVTVVTTATADGRPHGSTVSSFTSLSLDPPLASFALDRGSGLLPHLHQGARVGVNILAAHQHALAASFARRCPGTGSKFDGITWTTRAGLPHLPDSAGWTAGRVERHVPGGDHVLLVISVEEAHSTPAAPLVYLRRSFGTYSGLPAGG
notes: XiaP, NADH:flavin oxidoreductase of Streptomyces sp; HKI0576; also called flavin reductase XiaP; flavoenzyme-reductase; source: E. coli BL21-CodonPlus(DE3)-RP (pET28c-xiaP), purified (Ni-NTA, SEC)
Turning to B1, in data set [4], the “stoichiometry N” value was 2.

For the origin of these results see paper PMC5481743, “Cryptic indole hydroxylation by a non-canonical terpenoid cyclase parallels bacterial xenobiotic detoxification” (Nature Communications, 2017).
